# According to the RNAGym collection of RNA variant scans (doi:10.7554/elife.80360):
# B1: CPEB3 Ribozyme (parent)
# chain: GGGGGCCACAGCAGAAGCGUUCACGUCGCGGCCCCUGUCAGAUUCUGGUGAAUCUGCGAAUUCUGCUGU
# Variants of: B1
# Assay: self-cleavage, relative activity (ratio to wild type); higher = more cleavage; co-transcriptional
row,Variant,self-cleavage
1,GGGGGCCACAGCCGAAGCGUUCACGUCGCGGCCCCUGUCAGAUUGUGGUGAAUCUGCGAAUUCUGCUGU [A13C C45G],0.835
2,GGGGGCCACAGCCGAAGCGUUCACGUCGCGGCCCCUGUCAGAUUAUGGUGAAUCUGCGAAUUCUGCUGU [A13C C45A],0.761
3,GGGGGCCACAGCCGAAGCGUUCACGUCGCGGCCCCUGUCAGAUUCUGGUGAAUCUGCGAAUUCUGCUAU [A13C G68A],0.921
4,GGGGGCCACAGCCGAGGCGUUCACGUCGCGGCCCCUGUCAGAUUCUGGUGAAUCUGCGAAUUCUGCUGU [A13C A16G],0.682
5,GGGGGCCACAGCCGACGCGUUCACGUCGCGGCCCCUGUCAGAUUCUGGUGAAUCUGCGAAUUCUGCUGU [A13C A16C],0.102
6,GGGGGCCACAGCCGAUGCGUUCACGUCGCGGCCCCUGUCAGAUUCUGGUGAAUCUGCGAAUUCUGCUGU [A13C A16U],0.185
7,GGGGGCCACAGCCGAAGCGUUCACGUCGCGGCCCCUGUCAGAUUCUGGUCAAUCUGCGAAUUCUGCUGU [A13C G50C],0.787
8,GGGGGCCACAGCCGAAGCGUUCACGUCGCGGCCCCUGUCAGAUUCUGGUUAAUCUGCGAAUUCUGCUGU [A13C G50U],0.909
9,GGGGGCCACAGCCGAAGCGUUUACGUCGCGGCCCCUGUCAGAUUCUGGUGAAUCUGCGAAUUCUGCUGU [A13C C22U],0.209
10,GGGGGCCACAGCCGAAGCGUUCACGUCGCGGACCCUGUCAGAUUCUGGUGAAUCUGCGAAUUCUGCUGU [A13C C32A],0.55
11,GGGGGCCACAGCCGAAGCGUUCACGUCGUGGCCCCUGUCAGAUUCUGGUGAAUCUGCGAAUUCUGCUGU [A13C C29U],0.0773
12,GGGGGCCACAGCCGAAGCGUUCACGUCGAGGCCCCUGUCAGAUUCUGGUGAAUCUGCGAAUUCUGCUGU [A13C C29A],0.21
13,GGGGGCCACAGCCGAAGCGUUCACGUCGCGGCACCUGUCAGAUUCUGGUGAAUCUGCGAAUUCUGCUGU [A13C C33A],0.593
14,GGGGGCCACAGCCGAAGCGUUCACGUCGCGGCCCCUGUCAGAUUCUGGUGAAUCUGCGAAUUGUGCUGU [A13C C63G],0.366
15,GGGGGCCACAGCCGAAGCGUUCACGUCGCGGCCCCUGUCAGAUUCUGGUGAAUCUGCGAAUUUUGCUGU [A13C C63U],0.732
16,GGGGGCCACAGCCGAAGCGUUCACGUCGCGGCCCCUGUCAGAUUCUGGUGAAUCUGCGAAUUAUGCUGU [A13C C63A],0.467
17,GGGGGCCACAGCCGAAGCGUUCACGUCGCGGCCCCUGUCAGAUUCUGGUGAAUCUGCGAGUUCUGCUGU [A13C A60G],0.384
18,GGGGGCCACAGCCGAAGCGUUCACGUCGCGGCCCCUGUCAGAUUCUGGUGAAUCUGCGACUUCUGCUGU [A13C A60C],0.301
19,GGGGGCCACAGCCGAAGCGUUCACGUCGCGGCCCCUGUCAUAUUCUGGUGAAUCUGCGAAUUCUGCUGU [A13C G41U],0.349
20,GGGGGCCACAGCCGAAGCGUUCACGUCGCGGCCCCUGUCACAUUCUGGUGAAUCUGCGAAUUCUGCUGU [A13C G41C],0.214

row,Variant,self-cleavage
1,GGGGGCCACAGCCGAAGCGUUCACGUCGCGGCCCCUGUCAGAUUCUGGUGAAUUUGCGAAUUCUGCUGU [A13C C54U],0.773
2,GGGGGCCACAGCCGAAGCGUUCACGUCGCGGCCCCUGUCAGAUUCUGGUGAAUGUGCGAAUUCUGCUGU [A13C C54G],0.45
3,GGGGGCCACAGCCGAAGCGUUCACGUCGCGGCCCCUGUCAGAUUCUGGUGAAUAUGCGAAUUCUGCUGU [A13C C54A],0.414
4,GGGGGCCACAGCCGAAGCGUUCACGUCGCGGCCCCUGUCAGAUUCUGGUGGAUCUGCGAAUUCUGCUGU [A13C A51G],0.903
5,GGGGGCCACAGCCGAAGGGUUCACGUCGCGGCCCCUGUCAGAUUCUGGUGAAUCUGCGAAUUCUGCUGU [A13C C18G],0.0963
6,GGGGGCCACAGCCGAAGUGUUCACGUCGCGGCCCCUGUCAGAUUCUGGUGAAUCUGCGAAUUCUGCUGU [A13C C18U],0.262
7,GGGGGCCACAGCCGAAGAGUUCACGUCGCGGCCCCUGUCAGAUUCUGGUGAAUCUGCGAAUUCUGCUGU [A13C C18A],0.181
8,GGGGGCCACAGCCGAAGCGUUCACGUCGCUGCCCCUGUCAGAUUCUGGUGAAUCUGCGAAUUCUGCUGU [A13C G30U],0.281
9,GGGGGCCACAGCCGAAGCGUUCACGUCGCCGCCCCUGUCAGAUUCUGGUGAAUCUGCGAAUUCUGCUGU [A13C G30C],0.451
10,GGGGGCCACAGCCGAAGCGUUCAAGUCGCGGCCCCUGUCAGAUUCUGGUGAAUCUGCGAAUUCUGCUGU [A13C C24A],0.402
11,GGGGGCCACAGCCGAAGCGUUCAUGUCGCGGCCCCUGUCAGAUUCUGGUGAAUCUGCGAAUUCUGCUGU [A13C C24U],0.543
12,GGGGGCCACAGCCGAAGCGUUCACGUCGCGGCCCCUGUCAGAUUCUGGUGAUUCUGCGAAUUCUGCUGU [A13C A52U],0.837
13,GGGGGCCACAGCCGAAGCGUUCACGUCGCGGCCCCUGUCAGAUUCUGGUGACUCUGCGAAUUCUGCUGU [A13C A52C],0.77
14,GGGGGCCACAGCCGAAGCGUUCACGUCGCGGCCCCUGUCAGAUUCUGGUGAAUCUGCUAAUUCUGCUGU [A13C G58U],0.933
15,GGGGGCCACAGCCGAAGCGUUCACGUCGCGGCCCCUGUCAGAUUCUGGUGAAUCUGCAAAUUCUGCUGU [A13C G58A],0.754
16,GGGGGCCACAGCCGAAGCGUUCACGUCGCGGCCCCUGUCAGAUUCUGGUGAAUCUGCCAAUUCUGCUGU [A13C G58C],0.862
17,GGGGGCCACAGCCGAAGCGUUCACGUCGCGGCCCCUGUCAGAUUCUGGUGAAUCUUCGAAUUCUGCUGU [A13C G56U],0.51
18,GGGGGCCACAGCCGAAGCGUUCACGUCGCGGCCCCUGUCAGAUUCUGGUGAAUCUACGAAUUCUGCUGU [A13C G56A],0.625
19,GGGGGCCACAGCCGAAGCGUUCACGUCGCGGCCCCUGUCAGAUUCUGGUGAAUCUCCGAAUUCUGCUGU [A13C G56C],0.367
